Assays:
c-Jun (unmodified) = assay: from thermal melts, Kd at 37 °C (FIG. 4)
CREB (unmodified) = molecular target: T1, CREB (unmodified); assay: thermal melting curve, mixture (FIG. 3)
T1 sequence (chain, from a related filing, looked up): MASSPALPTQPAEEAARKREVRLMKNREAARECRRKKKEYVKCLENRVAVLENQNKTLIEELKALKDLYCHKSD

[1] = molecular target: C/EBP bZIP domain (chimeric GCN4-C/EBP protein) (C/EBP part: 'present in rat liver'; GCN4 part: yeast); assay: CD thermal melt, equimolar mixture, 150 mM KCl
[2] = molecular target: c-Myc bHLH protein (murine) (UniProt P01108); assay: heterodimer with c-Myc, study of FIG. 9 (method not given)

B1: c-Jun (unmodified) (protein, from a related filing)
chain: PLSPIDMESQERIKAERKRMRNRIAASKCRKRKLERIARLEEKVKTLKAQNSELASTANMLREQVAQLKQKVMNHVNSGCQLMLTQQLQTF
- Kd (c-Jun (unmodified)): 20000 nM

B2: New4hepCREB (CREB with the new 4heptad acidic extension, asparagine changed to leucine) (designed binder)
chain: MDYKDDDDKHMASMTGGQQMGRDPDLEQRAEELARENEELEKEAEELEQELAELENRVAVLENQNKTLIEELKALKDLYCHKSD
- Tm (CREB (unmodified)): 69.5 °C

B3: 3heptad-C/EBP (three heptad acidic extension appended onto the C/EBP leucine zipper) (designed binder, not shown: a dimerising Fc or GST)
chain: ASMTGGQQMGRDPGGGLARENEELEKEAEELEQENAELEQKVLELTSDNDRLRKRVEQLSRELDTLRGIFRQLPESSLVKAMGNCA
- Kd [1]: 0.6 nM
- Tm [1]: 61 °C
- delta G at 25 °C [1]: -12.6 kcal/mol

B4: AcidMax (Max with a polyglutamic acid extension on the dimerization domain) (designed binder)
chain: MASMTGGQQMGRDPDEEEDDEEELEELEDSFHSLRDSVPSLQGEKASRAQILDKATEYIQYMRRKNHTHQQDIDDLKRQNALLEQQVRALEKARSSAQLQT
- Kd [2]: 0.002 nM

B5: 0heptadMax (dimerization domain of Max without an acidic extension) (protein)
chain: ASMTGGQQMGRDPDLEELEDSFHSLRDSVPSLQGEKASRAQILDKATEYIQYMRRKNHTHQQDIDDLKRQNALLEQQVRALEKARSSAQLQT
- Kd [2]: 0.6 nM

From patent publication US20030027314A1
